{"source": "paper doi:10.1101/2022.04.06.487319", "about": "(bioRxiv, 2022)", "binders": {"B1": {"name": "strep-Hop1 (full length, Hop1-Red1 complex from Hi5 cells) (natural protein, Saccharomyces cerevisiae, UniProt P20050 1-605, looked up)", "chain": "MSNKQLVKPKTETKTEITTEQSQKLLQTMLTMSFGCLAFLRGLFPDDIFVDQRFVPEKVEKNYNKQNTSQNNSIKIKTLIRGKSAQADLLLDWLEKGVFKSIRLKCLKALSLGIFLEDPTDLLENYIFSFDYDEENNVNINVNLSGNKKGSKNADPENETISLLDSRRMVQQLMRRFIIITQSLEPLPQKKFLTMRLMFNDNVDEDYQPELFKDATFDKRATLKVPTNLDNDAIDVGTLNTKHHKVALSVLSAATSSMEKAGNTNFIRVDPFDLILQQQEENKLEESVPTKPQNFVTSQTTNVLGNLLNSSQASIQPTQFVSNNPVTGICSCECGLEVPKAATVLKTCKSCRKTLHGICYGNFLHSSIEKCFTCIFGPSLDTKWSKFQDLMMIRKVFRFLVRKKKGFPASITELIDSFINVEDQNNEVKERVAFALFVFFLDETLCLDNGGKPSQTIRYVTSSVLVDVKGIVIPNTRKQLNVNHEYKWHFTTSSPKAESFYQEVLPNSRKQVESWLQDITNLRKVYSEALSPSSTLQELDLNSSLPTQDPIISGQKRRRYDLDEYLEEDKSSVVNDTIKAKDFDESVPAKIRKISVSKKTLKSNW"}, "B2": {"name": "Red1^I743R-MBP (Hop1-Red1 complex from Hi5 cells) (natural protein, Saccharomyces cerevisiae, UniProt P14291 1-827, looked up)", "chain": "MEGLKKKIFGVCLKNDLAQTRNETKGIHYGLMTLETSKQLQEFLHLLVIKREVIQNFELLFHIINVAVKITDSNLPSDDIWHFILKLRFSSEINIDEDSKVLNYLLETGIAMENPVSWKCLAVISSILSSVPQSKKIITNLIETEHAKKIGQLFDNIQDLQQGNFLVEILSNCFKKSASNSKKVEKIPQLWQSRSKNKFFFENEFYPFSSKNGSLQTCQFLCNNFMSTLSFTGILRQVSYSGSETLKNLRIFKKKDDENSYFIQCIYNKIYLWLDEKAPLEFERKKIRITKNLKNKIQIKLRQPFHECVRTTADKTALLFNKTKGFQLEFEDEKLGETFFHNVNNIPKISEVQNFLVLDYIEEEPENEGEEEEQIGRADEQKEDEEEESLDELSTPMVYPIKSSIPHNHNEKVQLVTPDRSVSIRSDEWDLKSNTEDEEGNVLADLKISSTKETKRQTDYVHIDSEDQSPVVSAQMRKMRRESTKTLEILRQEFKDKDVQNKEDQSEQIQNPFVNTSSLVVGKSCLVNPKEKPNIDQTVVGITELKSNSSIKKRDINILDTIFGQPPSKKQKQFHKKEKKKQQKKLTNFKPIIDVPSQDKRNLRSNAPTKPKSIKVSKLRTDKKVTGEKSSPETAAEKVDDQTVRSNDEQAMSRATKEKCFPDVNEGKEITKDDAKVSLESKKNNETFVDSSVVEKHTPPDKDCNNCNITDILESTTVIDLQSPHGLSAPGQNTFTNKLQEQRYSSINHFSNELVRKISIINQELNKKILKELSEKYQKLFSELQDNFQNDTNEMLKFMGEIKDMMNLPEDQLVHAIRTRKFDNNKR"}, "B3": {"name": "MBP-Red1^733-827/I743R (domain or fragment, Saccharomyces cerevisiae, UniProt P14291 733-827, looked up)", "chain": "NTFTNKLQEQRYSSINHFSNELVRKISIINQELNKKILKELSEKYQKLFSELQDNFQNDTNEMLKFMGEIKDMMNLPEDQLVHAIRTRKFDNNKR"}, "B4": {"name": "MBP-Red1^733-827 (coiled-coil, WT) (domain or fragment, Saccharomyces cerevisiae, UniProt P14291 733-827, looked up)", "chain": "B3 chain with R11I"}, "B5": {"name": "MBP-Red1^733-819 (WT) (domain or fragment, Saccharomyces cerevisiae, UniProt P14291 733-819, looked up)", "chain": "NTFTNKLQEQIYSSINHFSNELVRKISIINQELNKKILKELSEKYQKLFSELQDNFQNDTNEMLKFMGEIKDMMNLPEDQLVHAIRT"}, "B6": {"name": "MBP-Red1^733-819/I743R (domain or fragment, Saccharomyces cerevisiae, UniProt P14291 733-819, looked up)", "chain": "B5 chain with I11R"}}, "key": {"[1]": {"target": "B2", "assay": "cross-linking"}, "[2]": {"target": "B2", "assay": "pull-down"}, "[3]": {"target": "B1", "assay": "mass photometry"}, "SEC-MALS": {"target": "the molecule itself", "assay": "SEC-MALS"}, "mass photometry": {"target": "the molecule itself", "assay": "mass photometry"}, "strep-Hop1 FL K593A": {"target": "T1, strep-Hop1 FL K593A (Saccharomyces cerevisiae, UniProt P20050 1-605, K593A)", "T1 sequence (looked up)": "B1 chain with K593A", "assay": "pull-down"}}, "note": "Numbering of substitutions follows the chain as printed. Names may count otherwise. “And” between values parts separate entries of the source, which are not always exact repeats. Identical values can stand only once.", "data": [{"binder": "B1", "values": [{"measurement": "binding result", "setting": "[1]", "result": "binds"}, {"measurement": "binding result", "setting": "[2]", "result": "binds"}]}, {"binder": "B2", "values": [{"measurement": "stoichiometry N", "setting": "[3]", "result": 1}]}, {"binder": "B3", "values": [{"measurement": "stoichiometry N", "setting": "SEC-MALS", "result": 4}, {"measurement": "stoichiometry N", "setting": "mass photometry", "result": 2}]}, {"binder": "B4", "values": [{"measurement": "stoichiometry N", "setting": "mass photometry", "result": "2 and 4"}]}, {"binder": "B5", "values": [{"measurement": "stoichiometry N", "setting": "mass photometry", "result": 4}]}, {"binder": "B6", "values": [{"measurement": "stoichiometry N", "setting": "mass photometry", "result": 4}]}, {"binder": "FHNVNNIPKISEVQNFLVLDYIE (peptide, UniProt P14291 340-362, looked up)", "note": "[MBP-Red1 (340-362), wild-type closure motif]", "values": [{"measurement": "binding result", "setting": "strep-Hop1 FL K593A", "result": "binds"}]}]}
